Consider one molecule from publication PMC5589592, “Direct inhibition of STAT signaling by platinum drugs contributes to their anti-cancer activity” (Oncotarget, 2017).

The target in this assay is T1, recombinant human STAT3, full-length, biotinylated through an N-terminal avi-tag (human, UniProt P40763 1-770, biotin on the avi-tag).
T1 construct: also called biotinylated STAT; full-length protein; not shown: avi-tag, N-terminal, kept
The assay is described as follows: AlphaScreen or HTRF; biotinylated STAT incubated 90 min with (or without) a platinum compound and FITC-pTyr peptide, then streptavidin-coated donor beads and anti-FITC acceptor beads; detection at 570 nm; cisplatin 1, 3, 10 or 30 uM inhibited the signal. Conditions: both partners purified.

Square brackets hold non-standard residues; d marks the D form. Ends that are not written are not given here. pY = N[C@@H](Cc1ccc(OP(=O)(O)O)cc1)C(=O)O

T1 sequence (P40763 whole entry): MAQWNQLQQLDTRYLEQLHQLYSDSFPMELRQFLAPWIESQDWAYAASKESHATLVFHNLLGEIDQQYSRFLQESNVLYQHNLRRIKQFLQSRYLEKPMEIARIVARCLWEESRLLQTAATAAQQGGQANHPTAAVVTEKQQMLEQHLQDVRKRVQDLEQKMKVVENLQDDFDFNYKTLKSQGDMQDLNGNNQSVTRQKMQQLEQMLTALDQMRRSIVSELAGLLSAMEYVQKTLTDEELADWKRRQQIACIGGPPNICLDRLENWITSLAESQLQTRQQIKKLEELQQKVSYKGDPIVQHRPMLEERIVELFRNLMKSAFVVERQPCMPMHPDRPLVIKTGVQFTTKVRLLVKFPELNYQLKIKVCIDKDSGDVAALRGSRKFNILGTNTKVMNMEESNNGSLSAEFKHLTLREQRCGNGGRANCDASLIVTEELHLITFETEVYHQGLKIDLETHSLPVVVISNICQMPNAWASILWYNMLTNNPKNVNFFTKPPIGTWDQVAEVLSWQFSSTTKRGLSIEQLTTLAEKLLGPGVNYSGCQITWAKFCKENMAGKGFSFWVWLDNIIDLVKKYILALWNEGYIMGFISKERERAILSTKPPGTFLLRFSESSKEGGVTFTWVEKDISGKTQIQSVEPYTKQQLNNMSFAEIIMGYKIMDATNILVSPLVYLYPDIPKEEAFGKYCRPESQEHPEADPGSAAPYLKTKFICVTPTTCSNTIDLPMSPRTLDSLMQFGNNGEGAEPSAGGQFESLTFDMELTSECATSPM

B1: 5-carboxyfluorescein (FITC)-GpYLPQTV phospho-tyrosine peptide probe (STAT3) (peptide)
peptide: G[pY]LPQTV
modifications: not fully specified (N-terminus)
notes: pTyr peptide that corresponds with a STAT docking site of the upstream receptor; also called FITC-pTyr peptide; pTyr
Take B1: the binding result is listed as “binds”.
